Laboratory results: patent publication US20200332005A1 (I MAB, published 2020)
Read-outs that look alike come from different tables or passages of the source.

Tests used:
[1] = target: T1, recombinant human CD73 protein (human, UniProt P21589 27-547); test: SPR, Biacore T200, antibody captured by anti-human Fc IgG, antigen as analyte, 1:1 model, 25 C
T1 construct: Bought (Novoprotein); also called recombinant CD73 protein; soluble CD73
T1 sequence: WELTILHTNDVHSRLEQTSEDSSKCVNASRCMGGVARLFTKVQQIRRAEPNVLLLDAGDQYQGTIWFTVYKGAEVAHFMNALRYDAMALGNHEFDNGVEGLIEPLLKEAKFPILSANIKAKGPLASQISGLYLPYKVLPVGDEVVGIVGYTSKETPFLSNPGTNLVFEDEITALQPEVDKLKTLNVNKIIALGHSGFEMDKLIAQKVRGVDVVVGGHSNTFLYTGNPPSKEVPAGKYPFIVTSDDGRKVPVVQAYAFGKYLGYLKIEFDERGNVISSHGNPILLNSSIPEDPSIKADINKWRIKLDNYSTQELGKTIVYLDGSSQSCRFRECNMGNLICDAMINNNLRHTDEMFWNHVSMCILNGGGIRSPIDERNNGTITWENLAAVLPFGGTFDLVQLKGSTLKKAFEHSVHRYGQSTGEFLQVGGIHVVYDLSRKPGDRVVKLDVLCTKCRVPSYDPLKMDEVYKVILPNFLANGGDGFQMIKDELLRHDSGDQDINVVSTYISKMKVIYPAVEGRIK
Protocol: For the binding assay, the Biacore T200 system was used through human antibody capture approach. The anti-human Fc lgG were immobilized on CMS sensor chip according to the manufactory's instruction. The test antibody was injected and captured by the immobilized anti-human Fc lgG. And then serial concentrations of antigen was individually injected, and the binding profile was recorded for each concentration antigen analyte, respectively. The assay system was regenerated by injection of 10 mM Glycine-HCl pH 1.5 for 30 seconds. The running buffer was HBS-EP+(10 mM HEPES, pH 7.4, 150 mM NaCl, 3 mM EDTA and 0.05% P20). The assay temperature was 25° C., and the association and dissociation time were 180 and 600 seconds, respectively.

[2] = target: T1, recombinant human CD73 protein; test: cell-based or functional assay
[3] = target: T2, human CD73 on the cell surface (human, UniProt P21589 27-549); test: cell-based or functional assay
T2 sequence: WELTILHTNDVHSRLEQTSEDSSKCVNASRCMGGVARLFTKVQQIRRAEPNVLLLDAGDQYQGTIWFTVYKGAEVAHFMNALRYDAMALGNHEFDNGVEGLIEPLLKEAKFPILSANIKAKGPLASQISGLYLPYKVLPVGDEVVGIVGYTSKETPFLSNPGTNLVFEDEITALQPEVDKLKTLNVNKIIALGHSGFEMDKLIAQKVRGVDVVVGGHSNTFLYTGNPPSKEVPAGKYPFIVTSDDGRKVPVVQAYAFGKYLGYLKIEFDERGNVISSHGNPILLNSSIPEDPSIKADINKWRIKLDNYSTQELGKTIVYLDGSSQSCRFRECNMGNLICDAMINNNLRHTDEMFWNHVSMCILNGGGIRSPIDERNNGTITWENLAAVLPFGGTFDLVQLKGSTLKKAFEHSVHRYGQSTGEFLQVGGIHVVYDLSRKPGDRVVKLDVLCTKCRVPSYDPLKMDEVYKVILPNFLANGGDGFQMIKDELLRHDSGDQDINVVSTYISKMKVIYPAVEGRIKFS

[4] = target: T1, recombinant human CD73 protein; test: cell-based or functional assay; remark: listed apart in the source
[5] = target: T1, recombinant human CD73 protein; test: ELISA, recombinant human CD73 at 2 ug/ml
[6] = target: T1, recombinant human CD73 protein; test: cell-based or functional assay; remark: listed apart in the source
cyno CD73 [7] = target: cyno CD73 (cyno); test: cell-based or functional assay
[8] = target: T2, human CD73 on the cell surface; test: flow cytometry on SK-OV-3 cells
Text: In the right panel, human ovarian carcinoma cell line (SK-OV-3) was stained with different concentrations of Hu101-28 and analyzed for surface binding by flow cytometry.

[9] = target: T1, recombinant human CD73 protein; test: plate binding assay read as OD 450 against Log (nM) of antibody; text: in vitro biochemical assay
cyno CD73 [10] = target: cyno CD73 (cyno); test: as above
[11] = target: T2, human CD73 on the cell surface; test: flow cytometry on SK-OV-3 cells; remark: listed apart in the source
Protocol: Binding was measured using an FACSCanto (Becton-Dickinson), and the results are presented in FIG. 8 (see also the table below).

C-terminal of CD73 = test: plate binding assay, axis Binding activity (OD450) against Ab (µg/ml); panel Binding to C-terminal of CD73
[12] = target: T2, human CD73 on the cell surface; test: cell-based or functional assay; remark: listed apart in the source

C-terminal of CD73, sequence (P21589 whole entry): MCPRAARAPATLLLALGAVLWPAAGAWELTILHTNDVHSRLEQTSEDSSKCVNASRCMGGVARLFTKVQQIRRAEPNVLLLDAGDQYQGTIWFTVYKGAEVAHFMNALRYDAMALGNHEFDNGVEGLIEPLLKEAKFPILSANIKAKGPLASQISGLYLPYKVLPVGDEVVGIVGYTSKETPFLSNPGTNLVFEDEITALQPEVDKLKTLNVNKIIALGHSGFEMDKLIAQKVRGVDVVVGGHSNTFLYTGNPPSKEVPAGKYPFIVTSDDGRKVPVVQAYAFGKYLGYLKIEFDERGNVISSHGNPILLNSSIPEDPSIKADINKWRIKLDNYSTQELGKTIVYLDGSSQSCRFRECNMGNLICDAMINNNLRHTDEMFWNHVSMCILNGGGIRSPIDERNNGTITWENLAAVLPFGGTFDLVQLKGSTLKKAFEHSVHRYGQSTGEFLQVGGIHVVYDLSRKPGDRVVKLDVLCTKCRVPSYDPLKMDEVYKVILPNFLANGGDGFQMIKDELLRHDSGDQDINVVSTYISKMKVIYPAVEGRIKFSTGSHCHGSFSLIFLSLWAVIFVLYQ

B1: Hu101-28 (antibody, V domains shown)
VH: EVQLQESGPGLVKPSETLSLTCAVSGYSITSGYYWNWIRQPPGKKLEWMGYINYGGSNGYNPSLKSRITISRDTSKNQFSLKLSSVTAADTAVYYCARDYDAYYEALDDWGQGTTVTVSS
VL: EIVLSQSPATLSLSPGERATLSCRASSRVNYMHWYQQKPGQSPRPWISATSNLASGVPARFSGSGSGTSYTLTISSLEPEDFAVYYCQQWSSNPPTFGGGTKVEIK
notes: also called humanized anti-CD73 antibody Hu101-28
Kd [1]: 0.59 nM | koff [1]: 3.47e-05 s⁻¹ | kon [1]: 58900 M⁻¹ s⁻¹ | IC50 (nM), inhibition of recombinant CD73 enzymatic activity [2]: 9.35 nM | IC50, inhibition of CD73 activity on MDA-MB-231 cells (CellTiter-Glo) [3]: 8.21 nM | IC50, inhibition of CD73 activity on SK-OV-3 cells (CellTiter-Glo) [3]: 2.52 nM | IC50, inhibition of recombinant human CD73 activity (CellTiter-Glo) [4]: 2.84 nM | EC50 [5]: 0.0887 nM | IC50, inhibition of CD73 enzyme activity (% of residual enzyme activity) [6]: 1.78 nM | IC50, inhibition of CD73 enzyme activity (% of residual enzyme activity) (cyno CD73 [7]): 2.22 nM | EC50 [8]: 0.67 nM | EC50 [9]: 0.09 nM | EC50 (cyno CD73 [10]): 0.44 nM | EC50 [11]: 1.35 nM | EC50 (read off the curve) (C-terminal of CD73): ~0.02 µg/mL | IC50 (nM), inhibition of CD73 enzymatic activity on SK-OV-3 cells [12]: 2.52 nM
